Measurements as given in patent US20240262904A1 (SHANGHAI MABGEEK BIOTECH, published 2024).

How the values were obtained:
[1] = target: T1, human TSLP antigen tagged with Flag (hTSLP-Flag) (human, UniProt Q969D9 29-159, limits assumed); assay: cell-based or functional assay
TSLP-flag-Biotin = target: T2, TSLP-flag-Biotin (human, UniProt Q969D9 29-159, limits assumed, biotin label, site not stated); assay: competition ELISA by the method of Example 5: blocks TSLP-flag-Biotin binding to coated TSLPR-ECD-hFc
T2 construct: the labelling is not described; also called biotinylated TSLP-flag

[2] = target: T1, human TSLP antigen tagged with Flag …; assay: SPR, Biacore T200, antibody captured on Protein A chip, hTSLP-Flag as analyte

Row | IC50 of inhibition of TSLP-dependent STAT5 activation (luciferase, IL-7R/TSLPR-BaF3-Luc (STAT5) cells, TSLP-flag stimulus) [1] [ng/mL] | IC50 (TSLP-flag-Biotin) [µg/mL] | Kd [2] [nM] | koff [2] [s⁻¹] | kon [2] [M⁻¹ s⁻¹] | Binder
1 | 184 | 0.167 | – | – | – | humanized anti-human TSLP antibody 111H (antibody, human IgG1, kappa, V domains shown, Humanized, human IgG1 constant region; also called humanized antibody No. 111) VH: EVQLVESGGGLVQPGGSLRLSCSVSGFSLTYSGVNWVRQAPGKGLEWLGAIWGDGSTNYHSALISRLTISKDNSKSTVYLQMNSLRAEDTAVYYCAKPDGYSGIFAYWGQGTLVTVSS VL: EIVLTQSPGTLSLSPGERATLSCSASSSLSSNYLHWYQQKPGQAPRLLIYRTSNLASGVPDRFSGSGSGTDFTLTISRLEPEDFAVYYCQQGSGILVTFGQGTKLEIKR
2 | 378 | 0.159 | 0.0513 | 0.000302 | 5.89e+06 | humanized anti-human TSLP antibody 163H (antibody, human IgG1, kappa, V domains shown, Humanized, human IgG1 constant region) VH: EVQLVESGGGLVQPGGSLRLSCAASGFTFSSFGMHWVRQAPGKGLEWVSYISSGSSNIYYADTVKGRFTISRDNAKNSLYLQMNSLRAEDTAVYYCARDGGSRRHYYVMDYWGQGTLVTVSS VL: EIVLTQSPATLSLSPGERATLSCKASQDVSPAVAWYQQKPGQSPRLLIYSASYRYTGVPARFSGSGSGTDFTLTISSLEPEDFAVYYCQQHYSSPFTFGQGTKLEIKR
3 | – | 0.185 | – | – | – | humanized anti-human TSLP antibody 101H (antibody, human IgG1, kappa, V domains shown, Humanized, human IgG1 constant region; also called humanized antibody No. 101) VH: QVQLVQSGAEVKKPGASVKVSCKTSGYTFTKYWIQWVRQAPGQGLEWIGEIFPGTGTTYYNEIFKARVTLTVDTSTSTAYMELSSLRSEDTAVYYCARRGDYDVYYALDYWGQGTLVTVSS VL: EIVLTQSPATLSLSPGERATLSCSANSGVNYIHWYQQKPGQAPRFWIWTTSNLASGVPARFSGSGSGTDFTLTISSLEPEDFAVYYCQQRSSYPFTFGQGTKLEIKR
